One substance from PMC11227723 can be followed below.

The target in this assay is Tropomyosin receptor kinase B (human TrkB), stably expressed in NIH-3T3 cells (human) (UniProt Q16620).
Chain of UniProt Q16620 (Q16620 32-822): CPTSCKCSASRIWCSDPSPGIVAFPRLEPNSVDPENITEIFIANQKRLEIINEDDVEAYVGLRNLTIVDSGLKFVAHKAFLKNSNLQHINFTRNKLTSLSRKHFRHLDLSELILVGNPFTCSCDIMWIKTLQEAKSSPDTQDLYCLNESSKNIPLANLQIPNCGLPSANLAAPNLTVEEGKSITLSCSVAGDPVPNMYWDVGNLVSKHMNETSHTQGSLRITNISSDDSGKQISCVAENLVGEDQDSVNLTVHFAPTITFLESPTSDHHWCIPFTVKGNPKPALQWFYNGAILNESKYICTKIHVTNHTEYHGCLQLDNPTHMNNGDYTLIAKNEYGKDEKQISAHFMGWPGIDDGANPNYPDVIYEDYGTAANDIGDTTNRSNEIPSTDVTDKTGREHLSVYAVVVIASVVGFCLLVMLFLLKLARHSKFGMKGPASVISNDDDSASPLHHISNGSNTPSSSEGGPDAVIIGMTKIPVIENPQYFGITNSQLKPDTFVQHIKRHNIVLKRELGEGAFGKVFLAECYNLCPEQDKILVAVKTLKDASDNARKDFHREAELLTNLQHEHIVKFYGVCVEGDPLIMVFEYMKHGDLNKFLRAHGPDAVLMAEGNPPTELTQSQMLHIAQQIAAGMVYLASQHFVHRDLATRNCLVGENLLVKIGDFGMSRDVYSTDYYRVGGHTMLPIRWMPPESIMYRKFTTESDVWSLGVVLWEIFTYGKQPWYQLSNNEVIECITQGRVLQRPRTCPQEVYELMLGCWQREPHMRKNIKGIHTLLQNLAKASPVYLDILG

“Brain-derived neurotrophic factor (ligand)” yielded a TrkB phosphorylation (Western blot of phosphorylated and total TrkB) in NIH-3T3-TrkB cells after 20 min with BDNF (500 ng/mL), fold change against the untreated control of 1.87 fold change.
